Results taken from FireProtDB.
Several values for one entry are separate records, joined by “and”; a condition that tells them apart may be missing. Identical values can stand only once.

Details: whole UniProt chain shown
[1] = Pseudomonas aeruginosa (strain ATCC 15692 / DSM 22644 / CIP 104116 / JCM 14847 / LMG 12228 / 1C / PRS 101 / PAO1), pH 7, Thermal, CD, KH2PO4-NaOH 10 mM, reversible: yes
[2] = Rattus norvegicus, pH 7.5, Thermal, CD, phosphate 10 mM, NaF 100 mM, reversible: yes
[3] = Notophthalmus viridescens, pH 7.2, 25 °C, GdnHCl, CD, Phosphate 100 mM
[4] = Nitratidesulfovibrio vulgaris (strain DSM 19637 / Miyazaki F), pH 7, 20 °C, GdnHCl, CD, phosphate 0.1 M, reversible: yes

B1: Cytochrome c-551 wild type, P00099 (protein)
chain: MKPYALLSLLATGTLLAQGAWAEDPEVLFKNKGCVACHAIDTKMVGPAYKDVAAKFAGQAGAEAELAQRIKNGSQGVWGPIPMPPNAVSDDEAQTLAKWVLSQK
Tm [1]: 56 °C
unfolding enthalpy (van 't Hoff) [1]: 39.5 kcal/mol

B2: Homeobox protein Nkx-2.1 wild type, P23441 (protein)
chain: MSMSPKHTTPFSVSDILSPLEESYKKVGMEGGGLGAPLAAYRQGQAAPPAAAMQQHAVGHHGAVTAAYHMTAAGVPQLSHSAVGGYCNGNLGNMSELPPYQDTMRNSASGPGWYGANPDPRFPAISRFMGPASGMNMSGMGGLGSLGDVSKNMAPLPSAPRRKRRVLFSQAQVYELERRFKQQKYLSAPEREHLASMIHLTPTQVKIWFQNHRYKMKRQAKDKAAQQQLQQDSGGGGGGGGGAGCPQQQQAQQQSPRRVAVPVLVKDGKPCQAGAPAPGAASLQGHAQQQAQQQAQAAQAAAAAISVGSGGAGLGAHPGHQPGSAGQSPDLAHHAASPAALQGQVSSLSHLNSSGSDYGAMSCSTLLYGRTW
unfolding free energy (Rattus norvegicus, pH 7.5, 25 °C, Urea, CD, phosphate 10 mM, NaF 100 mM, reversible: yes): 1.26 kcal/mol
Tm [2]: 42.8 °C
unfolding free energy [2]: 1.44 kcal/mol

B3: Fibroblast growth factor 1 wild type, Q7SIF8 (protein)
chain: QKPKLLYCSNGGYFLRIFPDGKVDGTRDRSDPYIQLQFYAESVGEVYIKSLETGQYLAMDSDGQLYASQSPSEECLFLERLEENNYNTYKSKVHADKDWFVGIKKNGKTKPGSRTHFGQKAILFLPLPVSSD
denaturant m value [3]: 3.8 kcal/mol/M
denaturant midpoint (higher = more stable) [3]: 1.6 M
unfolding free energy [3]: 6.1 kcal/mol

B4: Lipase B wild type, P41365 (protein)
chain: MKLLSLTGVAGVLATCVAATPLVKRLPSGSDPAFSQPKSVLDAGLTCQGASPSSVSKPILLVPGTGTTGPQSFDSNWIPLSTQLGYTPCWISPPPFMLNDTQVNTEYMVNAITALYAGSGNNKLPVLTWSQGGLVAQWGLTFFPSIRSKVDRLMAFAPDYKGTVLAGPLDALAVSAPSVWQQTTGSALTTALRNAGGLTQIVPTTNLYSATDEIVQPQVSNSPLDSSYLFNGKNVQAQAVCGPLFVIDHAGSLTSQFSYVVGRSALRSTTGQARSADYGITDCNPLPANDLTPEQKVAAAALLAPAAAAIVAGPKQNCEPDLMPYARPFAVGKRTCSGIVTP
Tm (Pseudozyma antarctica, pH 7, Thermal, CD, Tris-HCl 50 mM, reversible: No): 57.7 °C
Tm (Pseudozyma antarctica, pH 7, Thermal, Differential Scanning Fluorimetry, HEPES 10mM): 54.8 °C

B5: Harpin HrpZ wild type, P35674 (protein)
chain: MQSLSLNSSSLQTPAMALVLVRPEAETTGSTSSKALQEVVVKLAEELMRNGQLDDSSPLGKLLAKSMAADGKAGGGIEDVIAALDKLIHEKLGDNFGASADSASGTGQQDLMTQVLNGLAKSMLDDLLTKQDGGTSFSEDDMPMLNKIAQFMDDNPAQFPKPDSGSWVNELKEDNFLDGDETAAFRSALDIIGQQLGNQQSDAGSLAGTGGGLGTPSSFSNNSSVMGDPLIDANTGPGDSGNTRGEAGQLIGELIDRGLQSVLAGGGLGTPVNTPQTGTSANGGQSAQDLDQLLGGLLLKGLEATLKDAGQTGTDVQSSAAQIATLLVSTLLQGTRNQAAA
unfolding enthalpy (calorimetric) (Pseudomonas syringae pv. syringae, pH 7.5, Thermal, CD, Sodium phosphate 5mM): 33.8 kcal/mol and 58.3 kcal/mol

B6: Cytochrome c-553 wild type, P00120 (protein)
chain: MKRILVVMSICAALAFGVSAAMAADGAALYKSCVGCHGADGSKQAMGVGHAVKGQKADELFKKLKGYADGSYGGEKKAVMTNLVKRYSDEEMKAMADYMSKL
denaturant m value [4]: 2.49 kcal/mol/M and 2.75 kcal/mol/M
denaturant midpoint (higher = more stable) [4]: 3.65 M and 3.91 M
unfolding free energy [4]: 9.08 kcal/mol and 10.8 kcal/mol

B7: Serine proteinase inhibitor IA-1 wild type, Q7M4T6 (protein)
chain: SAGKFIVIFKNDVSEDKIRETKDEVIAEGGTITNEYNMPGMKGFAGELTPQSLTKFQGLQGDLIDSIEEDGIVTTQ
Tm (Pleurotus ostreatus, pH 7, Thermal, CD, sodium phosphate 50 mM): 59 °C

B8: Cytochrome b5 type B wild type, P04166 (protein)
chain: MATPEASGSGRNGQGSDPAVTYYRLEEVAKRNTAEETWMVIHGRVYDITRFLSEHPGGEEVLLEQAGADATESFEDVGHSPDAREMLKQYYIGDVHPNDLKPKDGDKDPSKNNSCQSSWAYWIVPIVGAILIGFLYRHFWADSKSS
denaturant midpoint (higher = more stable) (Rattus norvegicus, pH 7, 25 °C, GdmSCN, UV/visible spectrophotometer, MOPS 30mM): 2.04 M
Tm (Rattus norvegicus, pH 7, Thermal, UV/visible spectrophotometer, Potassium phosphate 50mM): 85.5 °C

B9: wild type, P95467 (protein)
chain: MKKALIASTALLLTAGVAAADVKISGYGRTGVIYYENDSDVNESRVQSRLRMNIDASSSTDSGVDFGARFRLQWDQGEEGEAQTNAGKLWVSAQGFTVEVGNVDTAFASNGLIYETGLGSYDRSVGFSAVTGAFFAYDSNGYGIDEVDRVGIRALYTLGDLTLQASYVDPDQSGTVIGVEEEFGFSVDYTWNERLELSAAAAFNGAGIDGNDIYFLGARYAVMDNARIGLNFVDAGDEEDGYDGKTIALYGDYTLADGRTNLEAYIANNDRDSNETDNAFGIGVNYDLGGARLGASLQRDYAENVTADFGVRFEF
Tm (Paracoccus denitrificans, pH 1.5, Thermal, CD, Unknown, reversible: No): 78.5 °C
Tm (Paracoccus denitrificans, pH 4, Thermal, CD, Unknown, reversible: No): 82.6 °C
Tm (Paracoccus denitrificans, pH 8, Thermal, Absorbance, Tris-HCl 50 mM, NaCl 100 mM, reversible: no): 86.2 °C
Tm (Paracoccus denitrificans, pH 8, Thermal, CD, Unknown, reversible: No): 86.2 °C
Tm (Paracoccus denitrificans, pH 10, Thermal, CD, Unknown, reversible: No): 86.2 °C

B10: Gastrotropin wild type, P80020 (protein)
chain: MAFTGKYEFESEKNYDEFMKRLGLPDEVIERGRNFKIITEVQQDGENFTWSQSYSGGNIMSNKFTIGKECEMQTMGGKKFKATVKMEGGKVVADFPNYHQTSEVVGDKLVEISTIGDVTYERVSKRVA
unfolding free energy (Rattus norvegicus, pH 8, 25 °C, Urea, CD, NaH2PO4 25 mM/, NaCl 75 mM, reversible: Yes): 4.39 kcal/mol
unfolding free energy (Rattus norvegicus, pH 8, 25 °C, Urea, Fluorescence, NaH2PO4 25 mM/, NaCl 75 mM, reversible: Yes): 4.71 kcal/mol

B11: Cytochrome b5 wild type, P00173 (protein)
chain: MAEQSDKDVKYYTLEEIQKHKDSKSTWVILHHKVYDLTKFLEEHPGGEEVLREQAGGDATENFEDVGHSTDARELSKTYIIGELHPDDRSKIAKPSETLITTVESNSSWWTNWVIPAISALVVALMYRLYMAED
Tm (Rattus norvegicus, pH 7, Thermal, UV spectroscopy, Sodium phosphate 50 mM, reversible: Yes): 93.1 °C
